The text below walks through data of article PMC8537277 (Pharmaceuticals, 2021).

The chains are these.
B1: peptide 7 (Ac-ALDC-NH2) (peptide)
peptide: Ac-ALDC-NH2
B2: peptide 10 (Ac-SLDA-NH2) (peptide)
peptide: Ac-SLDA-NH2
B3: peptide 6 (Ac-SKHA-NH2) (peptide)
peptide: Ac-SKHA-NH2
B4: peptide 9 (Ac-SLAC-NH2) (peptide)
peptide: Ac-SLAC-NH2
B5: peptide 5 (Ac-SKAS-NH2) (peptide)
peptide: Ac-SKAS-NH2
B6: peptide 3 (Ac-AKHS-NH2) (peptide)
peptide: Ac-AKHS-NH2
B7: peptide 4 (Ac-SAHS-NH2) (peptide)
peptide: Ac-SAHS-NH2
B8: peptide 8 (Ac-SADC-NH2) (peptide)
peptide: Ac-SADC-NH2

One test addresses H1N1 hemagglutinin (Cat No.: Z03181, GenScript), full-length recombinant HA (His-Tag) (influenza A virus H1N1 (strain not stated)). As to the kind of experiment: MST; fluorescently labelled His-HA (NT647-HA) held constant, peptide in 16 1:1 serial dilutions from 50 µM; assay buffer PBS; 10 min incubation at rt; standard-treated capillaries; high MST power, 10% LED power; Monolith NT.115pico; triplicate.
One may read the Kd as the concentration at which binding is half-saturated. On to B1, for which the Kd was determined as 21.2 µM.
Consider B2, for which the Kd turned out to be 2.69 µM.
Still for that read-out and setting: to B3 belongs 11.4 µM; to B4, 0.0058 µM.
As for B5, the Kd was 7.01 µM.
Same read-out and setting: to B6 belongs 3.12 µM; to B7, 0.0082 µM; to B8, 6.38 µM.

The next test has the same target. Kind of test: SPR.
With B7, the Kd amounted to 0.00357 µM.

For the next test the target is unchanged. Kind of test: SPR. The source holds these as a separate data set. In general terms: SPR reads the build-up and loss of mass on a sensor chip optically.
As to B1, the Kd stood at 0.0277 µM.
Same read-out and setting: to B2 belongs 0.343 µM; to B3, 6.75 µM; to B4, 2.57 µM.
Take B5: the Kd is 1.03 µM.
Same read-out and setting: to B6 belongs 2.7 µM; to B7, 0.0035 µM.
On the same count and under the same terms, to B8 belongs 2.19 µM.
